Test results taken from patent publication US20240425609A1.
Blank lines part the entries; values can stand above or below the substance they belong to.

Tests used:
human CD3 (human) = assay: cell-based or functional assay
human CD22 (human) = human CD22 (human) (UniProt P20273); assay: cell-based or functional assay
mouse PD1 (mouse) = mouse PD1 (mouse) (UniProt Q02242); assay: cell-based or functional assay
mouse CD20 (mouse) = mouse CD20 (mouse) (UniProt P19437); assay: flow cytometry on MC38/mCD20 cells
mouse CD20 (mouse), sequence (P19437 whole entry): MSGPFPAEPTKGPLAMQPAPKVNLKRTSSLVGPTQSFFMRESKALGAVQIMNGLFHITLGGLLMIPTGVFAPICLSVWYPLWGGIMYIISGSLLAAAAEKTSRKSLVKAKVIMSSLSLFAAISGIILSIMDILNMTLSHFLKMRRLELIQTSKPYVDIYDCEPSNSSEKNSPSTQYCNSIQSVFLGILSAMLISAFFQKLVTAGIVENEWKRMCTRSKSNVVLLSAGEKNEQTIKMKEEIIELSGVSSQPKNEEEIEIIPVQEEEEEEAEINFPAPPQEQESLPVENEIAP

human CD22 (human), sequence (P20273 20-847): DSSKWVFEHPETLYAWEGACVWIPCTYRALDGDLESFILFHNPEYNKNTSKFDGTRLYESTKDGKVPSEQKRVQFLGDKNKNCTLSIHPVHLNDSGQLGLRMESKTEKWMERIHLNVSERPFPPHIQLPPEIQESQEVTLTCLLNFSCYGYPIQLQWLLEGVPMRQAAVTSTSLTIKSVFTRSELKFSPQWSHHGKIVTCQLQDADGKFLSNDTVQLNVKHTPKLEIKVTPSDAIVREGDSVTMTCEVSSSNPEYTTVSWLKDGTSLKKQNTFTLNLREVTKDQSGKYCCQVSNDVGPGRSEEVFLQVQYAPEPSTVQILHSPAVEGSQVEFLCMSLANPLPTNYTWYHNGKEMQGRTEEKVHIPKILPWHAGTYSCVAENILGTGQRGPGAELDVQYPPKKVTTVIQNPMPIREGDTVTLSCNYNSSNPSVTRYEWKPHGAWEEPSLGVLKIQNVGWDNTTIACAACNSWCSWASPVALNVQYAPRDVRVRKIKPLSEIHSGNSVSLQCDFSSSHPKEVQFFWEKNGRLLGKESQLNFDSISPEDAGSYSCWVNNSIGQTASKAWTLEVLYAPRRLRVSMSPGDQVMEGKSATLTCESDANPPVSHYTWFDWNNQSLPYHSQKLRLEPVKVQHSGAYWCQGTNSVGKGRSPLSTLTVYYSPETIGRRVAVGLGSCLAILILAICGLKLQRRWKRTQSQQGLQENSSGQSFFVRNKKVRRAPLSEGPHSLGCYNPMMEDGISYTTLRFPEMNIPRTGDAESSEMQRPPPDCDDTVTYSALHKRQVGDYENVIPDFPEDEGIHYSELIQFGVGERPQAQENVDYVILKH
mouse PD1 (mouse), sequence (Q02242 25-288): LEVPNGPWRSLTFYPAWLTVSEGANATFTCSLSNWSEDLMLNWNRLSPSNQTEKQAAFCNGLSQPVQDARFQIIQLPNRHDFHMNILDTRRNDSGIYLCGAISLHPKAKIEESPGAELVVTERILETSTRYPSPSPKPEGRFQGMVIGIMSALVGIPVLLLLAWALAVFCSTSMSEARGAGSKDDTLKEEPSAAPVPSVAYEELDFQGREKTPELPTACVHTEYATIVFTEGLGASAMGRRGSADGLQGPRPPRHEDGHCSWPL

EC50, activation of T cell signaling (AP1-luciferase), run with 1 nM CD3 bsAb (human CD3 (human)): 1.15 nM
EC50, activation of T cell signaling (AP1-luciferase), run with 2.5 nM CD3 bsAb (human CD3 (human)): 0.627 nM
EC50, activation of T cell signaling (AP1-luciferase), run with 1 nM CD3 bsAb (human CD22 (human)): 1.15 nM
EC50, activation of T cell signaling (AP1-luciferase), run with 2.5 nM CD3 bsAb (human CD22 (human)): 0.627 nM
Substance: CD3 bsAb (REGN10551) (bispecific antibody)

Max % inhibition, AP1-luciferase bioassay, 2.5 nM CD3 bsAb (mouse PD1 (mouse)): 3%
Substance: REGN1932 (hIgG1 control) (antibody)

Max MFI (mouse CD20 (mouse)): 94.9 MFI
Substance: Single arm mPDL1 WT-Fc (Fc fusion)
